Data set [1] concerns the molecule itself. The data set is described as follows: SEC; holo-HypCS-D after Strep-Tactin affinity chromatography, Superdex 200 Increase 10/300 GL; oligomers separated from the HypCD complex.
Data set [2] concerns the target T1, HypD from Escherichia coli (Escherichia coli, UniProt P24192 1-373).
T1 construct: HypD, [4Fe-4S] cluster-containing hydrogenase maturation factor, Escherichia coli; Carries a [4Fe-4S] cluster; No tag is named for HypD in the complexes; also called EcHypD; HypD part of HypCS-D and HypCH-D
T1 sequence (looked up): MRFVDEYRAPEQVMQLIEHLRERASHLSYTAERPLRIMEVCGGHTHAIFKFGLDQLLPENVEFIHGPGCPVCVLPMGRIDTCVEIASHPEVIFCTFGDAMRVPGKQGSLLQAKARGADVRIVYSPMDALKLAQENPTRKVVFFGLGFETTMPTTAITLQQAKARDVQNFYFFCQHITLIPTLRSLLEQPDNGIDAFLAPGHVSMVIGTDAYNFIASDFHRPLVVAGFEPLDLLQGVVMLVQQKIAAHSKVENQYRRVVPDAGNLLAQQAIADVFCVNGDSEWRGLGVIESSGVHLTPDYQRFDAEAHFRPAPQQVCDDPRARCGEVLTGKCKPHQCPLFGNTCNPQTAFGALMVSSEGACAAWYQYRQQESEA
The data set is described as follows: pull-down; Strep-Tactin affinity chromatography by the Strep-tag II on HypC from soluble extracts of aerobically cultivated E. coli co-producing HypC_(Strep) and HypD (apo: pTHypDC_(Strep); holo: pTHypDEFC_(Strep)); 4 °C; SDS-PAGE of the isolated complexes. The following applies: partners not purified.

B1: HypC_(Strep) (HypC from Escherichia coli with Strep-tag II C-terminally fused) (natural protein, UniProt P0AAM3 1-90, looked up)
chain: MCIGVPGQIRTIDGNQAKVDVCGIQRDVDLTLVGSCDENGQPRVGQWVLVHVGFAMSVINEAEARDTLDALQNMFDVEPDVGALLYGEEK
notes: HypC, hydrogenase maturation factor, Escherichia coli; residue numbers count with Met1 as 1; also called EcHypC; HypC part of apo-HypCS-D and holo-HypCS-D; source: holo form additionally by size-exclusion chromatography; not shown: Strep-tag II, C-terminal, kept
As to B1, the binding result in data set [1] and in data set [2] was “binds” each time.

Source of the values: publication PMC11565642, “ATP-Triggered Fe(CN)2CO Synthon Transfer from the Maturase HypCD to the Active Site of Apo-[NiFe]-Hydrogenase” (Journal of the American Chemical Society, 2024).
